Consider five molecules from publication PMC7101311 (Nature Communications, 2020).

By Kd is commonly meant the equilibrium constant for the complex coming apart. The term stoichiometry N denotes the number of molecules, sites or subunits per partner or assembly.

The chains are these.
T1: His6-tagged PCNA from Pyrococcus abyssi (Pyrococcus abyssi, UniProt Q9UYX8 1-249)
T1 construct: PCNA, Pyrococcus abyssi; open reading frame optimized and synthesized, in pET28-a(+) with a thrombin-cleavable N-terminal 6xHis tag; PCNA with its His tag kept, captured on the NTA chip for SPR; also called His-tagged PCNA; source: E. coli BL21-CodonPlus (DE3)-RIPL, purified (heat step, HisTrap, heparin, size exclusion); not shown: His6, N-terminal, kept
T1 sequence (looked up): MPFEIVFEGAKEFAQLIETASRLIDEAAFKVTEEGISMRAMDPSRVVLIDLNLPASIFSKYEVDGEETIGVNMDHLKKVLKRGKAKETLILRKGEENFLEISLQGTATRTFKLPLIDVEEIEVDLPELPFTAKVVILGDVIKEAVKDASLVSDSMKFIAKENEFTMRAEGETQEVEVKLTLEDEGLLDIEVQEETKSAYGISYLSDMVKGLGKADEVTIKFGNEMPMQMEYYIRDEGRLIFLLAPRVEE

B1: primer-template duplex (18-mer primer / 25-mer template) (dsDNA)
DNA 1: CGCCGGGCCGAGCCGTGC
DNA 2: AGGTCGTGCACGGCTCGGCCCGGCG
B2: PCNA (proliferative cell nuclear antigen) from Pyrococcus abyssi (natural protein, UniProt Q9UYX8 1-249, looked up)
chain: T1 sequence (looked up)
notes: PCNA, Pyrococcus abyssi; open reading frame optimized and synthesized, in pET28-a(+) with a thrombin-cleavable N-terminal 6xHis tag; PCNA as used in cryo-EM, crystallisation, BLI (analyte) and primer extension; also called sliding clamp; source: E. coli BL21-CodonPlus (DE3)-RIPL, purified (heat step, HisTrap, heparin, size exclusion)
B3: cPIP peptide (12 amino-acid peptide mimicking the DP2 C-terminal PIP-box) (peptide)
peptide: KKRVISLEEFFS
notes: C-terminal PIP-box (cPIP) of PolD DP2, Pyrococcus abyssi; limits worked out from the printed residues V1258, I1259, L1261, F1264; also called canonical PIP-box; source: synthetic peptide (Smart Bioscience)
B4: MBP–iPIP-cPIP fusion (DP2:1196–1270) (domain or fragment, Pyrococcus abyssi, UniProt Q9V2F4 1381-1455, looked up)
chain: ETQLTLIVNPNDICQRLVMARTGEVNKSGLLENLSNGSKKTEKAEKAEKPRKKSDEKPKKKRVISLEEFFSRKSK
notes: C-terminal region of PolD DP2, Pyrococcus abyssi, residues 1196-1270, holding iPIP and cPIP; pIVEX His-MBP-TEV plasmid; TEV-cleavable N-terminal His6-MBP tag, kept for capture on Ni-NTA biosensors; also called His-MBP-fused DP2 construct; source: E. coli BL21-CodonPlus (DE3)-RIPL, purified (HisTrap, heparin, size exclusion; no heat step); not shown: His6, N-terminal, kept; MBP, N-terminal, kept

The target in series [1] is primase (Saccharomyces cerevisiae) (UniProt P10363). The note with it: cited from earlier work.
Series [2] concerns the target PolD DP1 (small subunit, exonuclease-deficient);PolD DP2 (large catalytic subunit);PCNA (Pyrococcus abyssi;Pyrococcus …, UniProt Q9V2F3;PDB:6T8H_3;Q9UYX8 1-619;1-1275;1-249, H451A||). The series is described as follows: cryo-EM structure (3.77 A); 2 mM Mg-acetate, 0.1 mM dAMPCPP (incoming nucleotide not seen in the map); Cryo-EM sample: 0.4 uM PolD, 1.2 uM PCNA, 0.7 uM DNA, 20 mM Na-HEPES pH 8, 0.01 mM NaCl (so in the source), 2 mM Mg-acetate, 0.1 mM dAMPCPP, 20 min at 4 C. The note with it: protein: recombinant;recombinant;recombinant; copies: 1;1;3; 5' overhang 7 nt on template strand (18 bp duplex).

Series [3] concerns the molecule itself. Briefly: cryo-EM structure; 0.4 µM PolD (DP1 H451A), 1.2 µM PCNA, 0.7 µM primed DNA duplex (18-mer primer, 7-nt overhang), 0.1 mM dAMPCPP, buffer F (20 mM Na-Hepes pH 8, 0.01 mM NaCl, 2 mM Mg-acetate), 20 min at 4 °C; single-particle cryo-EM, 3.77 Å.
For series [4], the target named is T1, His6-tagged PCNA from Pyrococcus abyssi. The series is described as follows: SPR; Biacore T200; ~2000 RU His-tagged PCNA and PriS-PriL(1–210) on an NTA chip, His-tagged MBP as reference; cPIP peptide 0-200 µM, 30 s at 30 µL/min, 25 °C, buffer E with 100 µM EDTA; steady-state fit. The note with it: both partners purified. A general note: In SPR one partner is held on a chip, and binding of the other changes the refractive index at the surface.

Series [5] has as its target B2. Briefly: BLI; Octet RED384; His-MBP-fused DP2 constructs captured on Ni-NTA biosensors (1.5 nm); PCNA or PriS-PriL(1–210) 31.25-2000 nM, 300 s, 25 °C, buffer E (20 mM Na-Hepes pH 8, 0.15 M NaCl) with 0.2 mg/mL BSA; steady-state fit. The note with it: both partners purified. In general terms: BLI is a label-free optical method that tracks binding on a fibre tip over time.

Sequence of PolD DP1 (small subunit, exonuclease-deficient);PolD DP2 (large catalytic subunit);PCNA (Q9V2F3 whole entry H451A, one chain of several): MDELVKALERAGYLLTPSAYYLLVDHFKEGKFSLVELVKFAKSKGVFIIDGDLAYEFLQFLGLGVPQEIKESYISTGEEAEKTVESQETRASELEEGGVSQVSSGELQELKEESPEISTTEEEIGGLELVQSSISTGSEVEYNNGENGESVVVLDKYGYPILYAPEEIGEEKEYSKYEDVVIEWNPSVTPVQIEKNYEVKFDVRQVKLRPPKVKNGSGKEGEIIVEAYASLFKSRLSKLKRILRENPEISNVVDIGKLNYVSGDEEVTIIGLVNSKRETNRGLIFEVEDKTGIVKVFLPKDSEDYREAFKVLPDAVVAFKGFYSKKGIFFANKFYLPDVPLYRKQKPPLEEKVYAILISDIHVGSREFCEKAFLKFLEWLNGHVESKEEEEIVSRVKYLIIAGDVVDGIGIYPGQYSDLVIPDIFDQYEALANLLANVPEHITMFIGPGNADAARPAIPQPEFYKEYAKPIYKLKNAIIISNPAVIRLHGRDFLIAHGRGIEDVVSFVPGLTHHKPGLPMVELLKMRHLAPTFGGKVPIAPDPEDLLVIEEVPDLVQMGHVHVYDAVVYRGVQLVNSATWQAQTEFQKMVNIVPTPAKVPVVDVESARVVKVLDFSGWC
Sequence of primase (Saccharomyces cerevisiae) (P10363 whole entry, chain 1 of 2): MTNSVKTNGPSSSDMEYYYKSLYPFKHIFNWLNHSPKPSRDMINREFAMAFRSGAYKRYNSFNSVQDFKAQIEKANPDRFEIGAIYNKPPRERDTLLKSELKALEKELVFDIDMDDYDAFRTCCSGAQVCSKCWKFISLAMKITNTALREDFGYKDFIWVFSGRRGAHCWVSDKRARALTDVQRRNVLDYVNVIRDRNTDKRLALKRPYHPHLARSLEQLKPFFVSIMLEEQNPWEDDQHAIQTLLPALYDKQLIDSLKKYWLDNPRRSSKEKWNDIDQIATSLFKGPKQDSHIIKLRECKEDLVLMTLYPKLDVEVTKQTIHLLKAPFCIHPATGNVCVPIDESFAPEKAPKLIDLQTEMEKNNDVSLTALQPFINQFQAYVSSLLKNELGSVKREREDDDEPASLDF
Sequence of primase (Saccharomyces cerevisiae) (P20457 whole entry, chain 2 of 2, further chain): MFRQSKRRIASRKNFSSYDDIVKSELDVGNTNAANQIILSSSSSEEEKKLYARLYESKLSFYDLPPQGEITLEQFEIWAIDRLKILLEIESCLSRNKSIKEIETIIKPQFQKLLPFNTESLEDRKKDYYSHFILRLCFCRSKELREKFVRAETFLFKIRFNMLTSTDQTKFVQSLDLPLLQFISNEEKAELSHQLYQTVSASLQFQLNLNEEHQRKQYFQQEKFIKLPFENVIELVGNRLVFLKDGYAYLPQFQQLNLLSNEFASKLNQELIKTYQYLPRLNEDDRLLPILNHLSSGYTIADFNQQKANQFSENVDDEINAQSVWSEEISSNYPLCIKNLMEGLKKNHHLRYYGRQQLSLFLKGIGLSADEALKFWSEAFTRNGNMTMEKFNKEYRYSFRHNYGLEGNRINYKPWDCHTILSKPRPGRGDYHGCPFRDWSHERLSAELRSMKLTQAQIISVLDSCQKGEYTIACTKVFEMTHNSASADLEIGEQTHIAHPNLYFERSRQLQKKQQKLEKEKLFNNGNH

In the case of “DNA polymerase alpha C-terminus (from UniProt P13382)”, the Kd in series [1] is 245 nM. As for B1, the binding result in series [2] is “binds”. With B2, the “stoichiometry N” value in series [3] was 3. Regarding B3, the Kd in series [4] was 49 ± 4 µM.

Consider B4, for which binding in series [5] was put at a Kd of 472 ± 120 nM.
